Data reported in article PMC3192862 (Molecular Biology of the Cell, 2011).

B1: Cdc12(FH1) (domain or fragment, S. pombe, UniProt Q10059 882-972, looked up)
chain: NNSKITNFDIPNDATSLPTIITHPTPPPPPPLPVKTSLNTFSHPDSVNIVANDTSVAGVMPAFPPPPPPPPPLVSAAGGKFVSPAVSNNIS
B2: Fus1(FH1) (domain or fragment, S. pombe, UniProt Q10719 792-862, looked up)
chain: MRIKEVIDGNPFKAPPPAPLPPPAPPLPTAMSSLQKFEKNDSQIFRKTIIIPENISIDDIFKFCSGSESEV
B3: For3(FH1) (domain or fragment, S. pombe, UniProt O94532 718-837, looked up)
chain: SDTVEEQQKLLLKSPPPPPPAVIVPTPAPAPIPVPPPAPIMGGPPPPPPPPGVAGAGPPPPPPPPPAVSAGGSRYYAPAPQAEPEPKIDETSLTEEQKIQLEEARKQRKAADDAARAAIE
B4: Cdc12(FH2), wild type (domain or fragment, S. pombe, UniProt Q10059 973-1390, looked up)
chain: KDDLHKTTGLTRRPTRRLKQMHWEKLNSGLEFTFWTGPSDEANKILETLHTSGVLDELDESFAMKEAKTLVKKTCARTDYMSSELQKLFGIHFHKLSHKNPNEIIRMILHCDDSMNECVEFLSSDKVLNQPKLKADLEPYRIDWANGGDLVNSEKDASELSRWDYLYVRLIVDLGGYWNQRMNALKVKNIIETNYENLVRQTKLIGRAALELRDSKVFKGLLYLILYLGNYMNDYVRQAKGFAIGSLQRLPLIKNANNTKSLLHILDITIRKHFPQFDNFSPELSTVTEAAKLNIEAIEQECSELIRGCQNLQIDCDSGALSDPTVFHPDDKILSVILPWLMEGTKKMDFLKEHLRTMNTTLNNAMRYFGEQPNDPNSKNLFFKRVDSFIIDYSKARSDNLKSEEEEASQHRRLNLVN
B5: Cdc12(FH2) G1201R, N1202P (domain or fragment, S. pombe, UniProt Q10059 973-1390, looked up)
chain: KDDLHKTTGLTRRPTRRLKQMHWEKLNSGLEFTFWTGPSDEANKILETLHTSGVLDELDESFAMKEAKTLVKKTCARTDYMSSELQKLFGIHFHKLSHKNPNEIIRMILHCDDSMNECVEFLSSDKVLNQPKLKADLEPYRIDWANGGDLVNSEKDASELSRWDYLYVRLIVDLGGYWNQRMNALKVKNIIETNYENLVRQTKLIGRAALELRDSKVFKGLLYLILYLRPYMNDYVRQAKGFAIGSLQRLPLIKNANNTKSLLHILDITIRKHFPQFDNFSPELSTVTEAAKLNIEAIEQECSELIRGCQNLQIDCDSGALSDPTVFHPDDKILSVILPWLMEGTKKMDFLKEHLRTMNTTLNNAMRYFGEQPNDPNSKNLFFKRVDSFIIDYSKARSDNLKSEEEEASQHRRLNLVN
B6: Cdc12(FH2) I1063A (domain or fragment, S. pombe, UniProt Q10059 973-1390, looked up)
chain: KDDLHKTTGLTRRPTRRLKQMHWEKLNSGLEFTFWTGPSDEANKILETLHTSGVLDELDESFAMKEAKTLVKKTCARTDYMSSELQKLFGAHFHKLSHKNPNEIIRMILHCDDSMNECVEFLSSDKVLNQPKLKADLEPYRIDWANGGDLVNSEKDASELSRWDYLYVRLIVDLGGYWNQRMNALKVKNIIETNYENLVRQTKLIGRAALELRDSKVFKGLLYLILYLGNYMNDYVRQAKGFAIGSLQRLPLIKNANNTKSLLHILDITIRKHFPQFDNFSPELSTVTEAAKLNIEAIEQECSELIRGCQNLQIDCDSGALSDPTVFHPDDKILSVILPWLMEGTKKMDFLKEHLRTMNTTLNNAMRYFGEQPNDPNSKNLFFKRVDSFIIDYSKARSDNLKSEEEEASQHRRLNLVN
B7: Cdc12(FH2) K991A (domain or fragment, S. pombe, UniProt Q10059 973-1390, looked up)
chain: KDDLHKTTGLTRRPTRRLAQMHWEKLNSGLEFTFWTGPSDEANKILETLHTSGVLDELDESFAMKEAKTLVKKTCARTDYMSSELQKLFGIHFHKLSHKNPNEIIRMILHCDDSMNECVEFLSSDKVLNQPKLKADLEPYRIDWANGGDLVNSEKDASELSRWDYLYVRLIVDLGGYWNQRMNALKVKNIIETNYENLVRQTKLIGRAALELRDSKVFKGLLYLILYLGNYMNDYVRQAKGFAIGSLQRLPLIKNANNTKSLLHILDITIRKHFPQFDNFSPELSTVTEAAKLNIEAIEQECSELIRGCQNLQIDCDSGALSDPTVFHPDDKILSVILPWLMEGTKKMDFLKEHLRTMNTTLNNAMRYFGEQPNDPNSKNLFFKRVDSFIIDYSKARSDNLKSEEEEASQHRRLNLVN
B8: Cdc12(FH2) K1226A (domain or fragment, S. pombe, UniProt Q10059 973-1390, looked up)
chain: KDDLHKTTGLTRRPTRRLKQMHWEKLNSGLEFTFWTGPSDEANKILETLHTSGVLDELDESFAMKEAKTLVKKTCARTDYMSSELQKLFGIHFHKLSHKNPNEIIRMILHCDDSMNECVEFLSSDKVLNQPKLKADLEPYRIDWANGGDLVNSEKDASELSRWDYLYVRLIVDLGGYWNQRMNALKVKNIIETNYENLVRQTKLIGRAALELRDSKVFKGLLYLILYLGNYMNDYVRQAKGFAIGSLQRLPLIANANNTKSLLHILDITIRKHFPQFDNFSPELSTVTEAAKLNIEAIEQECSELIRGCQNLQIDCDSGALSDPTVFHPDDKILSVILPWLMEGTKKMDFLKEHLRTMNTTLNNAMRYFGEQPNDPNSKNLFFKRVDSFIIDYSKARSDNLKSEEEEASQHRRLNLVN

What follows are binders tested against T1, fission yeast profilin (fission yeast, UniProt P39825 1-127) (assay: other fluorescence titration).
T1 sequence (looked up): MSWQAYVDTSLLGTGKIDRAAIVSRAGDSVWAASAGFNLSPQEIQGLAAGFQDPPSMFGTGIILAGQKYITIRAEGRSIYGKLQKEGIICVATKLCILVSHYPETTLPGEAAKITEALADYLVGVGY
B1 was tested, and the Kd was 1700 nM. B2 gave a Kd of 1300 nM. With B3 the Kd was 6500 nM.

Target: the molecule itself
Experiment: SEC
B4: binds. B5: binds. B6: binds. B7: binds. B8: binds.
